From patent US20190177366

Experiments:
Compound 29 = test system: T1, Compound 29
T1 sequence: SGCFIPWNLQRIGLLC

Pep2-8-ctrl = test system: T2, Pep2-8-ctrl
T2 sequence: TVATSAEEYLLWV

Compound 118 = test system: T3, Compound 118
T3 sequence: WNLVXIGLTR

Compound 26 = test system: T4, Compound 26
T4 sequence: SGCFIPWNLQRIGLLC

Pep2-8 = test system: T5, Pep2-8
T5 sequence: TVFTSWEEYLDWV

## PCSK9-R167A:R215A:R218A
Compound 29
  FXIa cleavage of the P′ helix (immunoblot): both groove binding peptides accelerated the cleavage reaction, leading to almost complete cleavage of the P′ helix
Pep2-8-ctrl
  FXIa cleavage of the P′ helix (immunoblot): The control peptide did not inhibit cleavage and gave similar results as the buffer control
Compound 118
  FXIa cleavage of the P′ helix (immunoblot): resulted in a higher degree of P′ helix cleavage by FXIa as compared to the peptide Compound 112
Compound 26
  FXIa cleavage of the P′ helix (immunoblot): both groove binding peptides accelerated the cleavage reaction, leading to almost complete cleavage of the P′ helix
Pep2-8
  FXIa cleavage of the P′ helix (immunoblot): both reagents largely prevented cleavage of the P′ helix by FXIa
